Measurements: paper PMC9860306 (2022)

Experiments:
Assay in all cases: SPR
E4 = biological target: E4
E2 = biological target: E2
C11 = biological target: C11

B1: rituximab, galactosylated afucosylated (G2) glycoform (antibody)
chain 1: QVQLQQPGAELVKPGASVKMSCKASGYTFTSYNMHWVKQTPGRGLEWIGAIYPGNGDTSYNQKFKGKATLTADKSSSTAYMQLSSLTSEDSAVYYCARSTYYGGDWYFNVWGAGTTVTVSA
chain 2: QIVLSQSPAILSASPGEKVTMTCRASSSVSYIHWFQQKPGSSPKPWIYATSNLASGVPVRFSGSGSGTSYSLTISRVEAEDAATYYCQQWTSNPPTFGGGTKLEIK
modifications: N-linked glycan on Asn297: G2 (galactosylated, no core fucose)
Kd (E4): 2.48 µM
Kd (E2): 4.74 µM
Kd (C11): 22.8 µM
